US20230285523A1, “USE OF ELAFIN IN THE TREATMENT OF COVID-19” (priority 2021, published 2023)
No end group written: not given here.

What was measured:
[1] = rats, cited from earlier work
[2] = tested on: MCP-1 (macrophage chemoattractant protein-1; CCL2); details: U937 cells, LPS; cited from earlier work
[3] = tested on: 20 S proteasome; details: cited from earlier work
[4] = in vivo; cited from earlier work
[5] = tested on: transcription factors AP-1 and NF-κB; details: U937 cells; cited from earlier work
[6] = One phase I and two phase II randomized double-blind placebo-controlled clinical trials in a surgery program; type: in vivo
From the text: The clinical trials in the surgery development program established an intravenous single dosing scheme with perioperative administration via infusion.

[7] = Two clinical Phase II studies, intravenous doses; type: in vivo; details: intravenous doses of 200 mg
[8] = Phase I clinical study, single intravenous doses; type: in vivo; details: single intravenous doses of 20 to 400 mg
[9] = after heart transplantation, myocardial infarction, skeletal muscle ischemia; cited from earlier work
[10] = after esophageal cancer surgery

Row | Substance | accumulation in other organs, including the brain ([1]; 24 h p.i.) | radioactivity in the dissected kidney ([1]; 24 h p.i.) | terminal elimination half-life in blood ([1]; bolus intravenous injection, blood) | maximum accumulation in the kidney ([1]; kidney, 5 min post injection, SPECT) | share of detected radioactivity in the kidney identified as not metabolized ([1]; kidney, 24 h p.i.) | production of MCP-1 [2] | inhibition of peptidase activities associated with the 20 S proteasome [3] | ventilator induced injury [4] | LPS-induced activation of AP-1 and NF-κB [5] | kidney, liver and heart organ damages [6, 10] | organ protective effect (length of ICU stay) [6, 10] | tolerability of intravenous application ([6]; one phase I and two phase II trials, surgery program) | safety concerns ([6]; surgery program clinical trials) | tolerability [7] | tolerability [8] | reperfusion injury [9]
1 | 99mTc-elafin: 99mTc-labeled elafin used for SPECT pharmacokinetics in rats (AQEPVKGPVSTKPGSCPIILIRCAMLNPPNRCLKDTDCPGIKKCCEGSCGMACFVPQ; ends and bridges not checked; also: 99mTc label; UniProt P19957 61-117, looked up) | no accumulation | 4.98±1.24 %ID/g | 3.33 h | 8.5%±0.1% | 30% | – | – | – | – | – | – | – | – | – | – | –
2 | Tiprelestat: INN name of elafin; recombinant human protein of 57 amino acids, about 6 kDa, inhibitor of elastase and proteinase 3 (AQEPVKGPVSTKPGSCPIILIRCAMLNPPNRCLKDTDCPGIKKCCEGSCGMACFVPQ; listed as Homo sapiens) | – | – | – | – | – | inhibition of the production | no inhibition | able to reduce | inhibited | trend towards lower | organ protective effect was confirmed | well tolerated | No major safety concerns were observed | well tolerated | well tolerated | suppresses reperfusion injury
